Measurements reported in article PMC7526519 (2020).

Assays:
[1] = target: SARS-CoV receptor binding domain (RBD), His-tagged (SARS-CoV, UniProt P59594 306-527); experiment: SPR
[2] = target: SARS-CoV-2 receptor binding domain (RBD), His-tagged (SARS-CoV-2, UniProt P0DTC2 319-541); experiment: SPR

Binder | Kd [1] | Kd [2]
raccoon dog ACE2 ectodomain fused with mouse Fc (Fc fusion) QSTEDLVNTFLEKFNYEAEELSYQSSLASWNYNTNITDENLQKMNNAGAKWSAFYEEQSKLAKTYPLEEIQDSTVKRQLRALQHSGSSVLSADKNQRLNTILNSMSTIYSTGKACNPSNPQECLLLEPGLDDIMENSKDYNERLWAWEGWRSEVGKQLRPLYEEYVALKNEMARANNYEDYGDYWRGDYEEEWENGYNYSRNQLIDDVEHTFTQIMPLYQHLHAYVRTKLMDTYPSYISPTGCLPAHLLGDMWGRFWTNLYPLTVPFGQKPNIDVTNAMVNQSWDARKIFKEAEKFFVSVGLPNMTQGFWENSMLTEPSDSWKVVCHPTAWDLGRGDFRIKMCTKVTMDDFLTAHHEMGHIQYDMAYAAQPFLLRNGANEGFHEAVGEIMSLSAATPNHLKNIGLLPPSFFEDSETEINFLLKQALTIVGTLPFTYMLEKWRWMVFKGEIPKDQWMKTWWEMKRNIVGVVEPVPHDETYCDPASLFHVANDYSFIRYYTRTIYQFQFQEALCQIAKHEGPLHKCDISNSSEAGQKLLEMLKLGKSKPWTYALEIVVGAKNMDVRPLLNYFEPLFTWLKEQNRNSFVGWNTDWSPYADQSIKVRISLKSALGEKAYEWNNNEMYLFRSSIAYAMRQYFSEVKNQTIPFVEDNVWVSDLKPRISFNFFVTSPGNVSDIIPRTEVEEAIRMYRSRINDVFRLDDNSLEFLGIQPTLGPPYEPPVT | 179 nM | 96.4 nM
rabbit ACE2 ectodomain fused with mouse Fc (Fc fusion) QSTIEELAKTFLEKFNQEAEDLSYQSALASWDYNTNITEENVQKMNDAEAKWSAFYEEQSKLAKTYPSQEVQNLTVKRQLQALQQSGSSALSADKSKQLNTILSTMSTIYSTGKVCNQSNPQECFLLEPGLDEIMAKSTDYNERLWAWEGWRSVVGKQLRPLYEEYVVLKNEMARANNYEDYGDYWRADYEAEGADGYDYSRSQLIDDVERTFSEIKPLYEQLHAFVRTKLMDAYPSRISPTGCLPAHLLGDMWGRFWTNLYSLTVPFGQKPNIDVTDTMVNQGWDAERIFKEAEKFFVSVGLPSMTQGFWENSMLTEPGDGRKVVCHPTAWDLGKGDFRIKMCTKVTMDNFLTAHHEMGHIQYDMAYATQPFLLRNGANEGFHEAVGEIMSLSAATPEHLKSIGLLPYDFHEDNETEINFLLKQALTIVGTLPFTYMLEKWRWMVFKGEIPKEQWMQKWWEMKREIVGVVEPMPHDETYCDPAALFHVANDYSFIRYYTRTIYQFQFQEALCQAAQHEGPLHKCDISNSTEAGQKLLNMLRLGRSEPWTLALENVVGAKNMDVRPLLNYFEPLFTWLKEQNRNSFVGWSTEWTPYADQSIKVRISLKTALGDQAYEWNDSEMYLFRSSVAYAMRKYFSEVKNQTILFGEEDVRVSDLKPRISFNFFVTAPNNVNDIIPRNEVEEAISMSRSRINDIFRLDDNSLEFVGIQPTLEPPYESPVP | 74.8 nM | 76.2 nM
monkey ACE2 ectodomain fused with mouse Fc (Fc fusion) QSTIEEQAKTFLDKFNHEAEDLFYQSSLASWNYNTNITEENVQNMNNAGEKWSAFLKEQSTLAQMYPLQEIQNLTVKLQLQALQQNGSSVLSEDKSKRLNTILNTMSTIYSTGKVCNPNNPQECLLLDPGLNEIMEKSLDYNERLWAWEGWRSEVGKQLRPLYEEYVVLKNEMARANHYKDYGDYWRGNYEVNGVDGYDYNRDQLIEDVERTFEEIKPLYEHLHAYVRAKLMNAYPSYISPTGCLPAHLLGDMWGRFWTNLYSLTVPFGQKPNIDVTDAMVNQAWNAQRIFKEAEKFFVSVGLPNMTQGFWENSMLTDPGNVQKVVCHPTAWDLGKGDFRIIMCTKVTMDDFLTAHHEMGHIQYDMAYAAQPFLLRNGANEGFHEAVGEIMSLSAATPKHLKSIGLLSPDFQEDNETEINFLLKQALTIVGTLPFTYMLEKWRWMVFKGEIPKDQWMKKWWEMKREIVGVVEPVPHDETYCDPASLFHVSNDYSFIRYYTRTLYQFQFQEALCQAAKHEGPLHKCDISNSTEAGQKLLNMLKLGKSEPWTLALENVVGAKNMNVRPLLNYFEPLFTWLKDQNKNSFVGWSTDWSPYADQSIKVRISLKSALGDKAYEWNDNEMYLFRSSVAYAMRTYFLEIKHQTILFGEEDVRVADLKPRISFNFYVTAPKNVSDIIPRTEVEEAIRISRSRINDAFRLNDNSLEFLGIQTTLAPPYQSPVT | 69.1 nM | 21.7 nM
